Data reported in patent US20200095278A1 (USTAV ORGANICKE CHEMIE A BIOCHEMIE AV CR V V I, published 2020).
No end group written: not given here.

Experiments:
[1] = molecular target: T1, E. coli rhomboid protease GlpG (E. coli, UniProt P09391 1-276, limits assumed); assay: cell-based or functional assay
T1 sequence (looked up): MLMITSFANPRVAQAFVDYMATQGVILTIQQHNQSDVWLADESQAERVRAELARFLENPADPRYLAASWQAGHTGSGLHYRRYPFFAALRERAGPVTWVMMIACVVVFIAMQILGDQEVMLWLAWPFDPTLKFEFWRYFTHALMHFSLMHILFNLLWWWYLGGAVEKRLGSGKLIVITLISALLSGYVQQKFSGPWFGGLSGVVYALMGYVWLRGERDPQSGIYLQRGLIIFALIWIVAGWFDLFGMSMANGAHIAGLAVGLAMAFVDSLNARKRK

[2] = molecular target: T1, E. coli rhomboid protease GlpG; assay: in vitro inhibition of rhomboid protease GlpG, as described (Ticha et al., 2017); printed as a Ki range

B1: Compound 1 (peptide)
peptide: Ac-RVRHA-{keto‑C(:O)NH2}
IC50 (µM), measured in vitro as described (Ticha et al., 2017) [1]: 203 µM

B2: Compound 5 (peptide)
peptide: Ac-RVRHA-{keto‑C(:O)NH-1‑phenylethyl}
IC50 (µM), measured in vitro as described (Ticha et al., 2017) [1]: 13.8 µM

B3: Compound 4 (peptide)
peptide: Ac-RVRHA-{keto‑C(:O)NH-benzyl}
IC50 (µM), measured in vitro as described (Ticha et al., 2017) [1]: 7.64 µM

B4: Compound 16 (peptide)
peptide: Ac-RVWHA-{keto‑C(:O)NH-4‑phenylbutyl}
IC50 (µM), measured in vitro as described (Ticha et al., 2017) [1]: 0.77 µM

B5: Compound 6 (peptide)
peptide: Ac-RVRHA-{keto‑C(:O)NH-ethoxycarbonylmethyl}
IC50 (µM), measured in vitro as described (Ticha et al., 2017) [1]: 4.24 µM

B6: Compound 11 (peptide)
peptide: Ac-RVRHA
modifications: also: C-terminal Ala as alpha-ketoamide, -CO-CO-NH-(CH2)4-Ph
notes: Structure is printed only as a drawing; Tail inferred from C39H62N14O7, MW 839.02; also called Cpd No. 11
Ki [2]: 10 to 100 nM
IC50 (µM), measured in vitro as described (Ticha et al., 2017) [1]: 0.15 µM

B7: Compound 9 (peptide)
peptide: Ac-RVRHA
modifications: also: C-terminal Ala as alpha-ketoamide, -CO-CO-NH-(CH2)2-Ph
notes: Structure is printed only as a drawing; Tail inferred from monoisotopic mass 810.461290, MW 810.96, and the NMR; It has the same mass as compound 5; also called Cpd No. 9
Ki [2]: 10 to 100 nM
IC50 (µM), measured in vitro as described (Ticha et al., 2017) [1]: 0.34 µM

B8: Compound 8 (peptide)
peptide: Ac-RVRHA-{keto‑C(:O)NH-pentyl}
IC50 (µM), measured in vitro as described (Ticha et al., 2017) [1]: 1.08 µM

B9: Compound 7 (peptide)
peptide: Ac-RVRHA-{keto‑C(:O)NH-neopentyl}
IC50 (µM), measured in vitro as described (Ticha et al., 2017) [1]: 2.15 µM

B10: Compound 2 (peptide)
peptide: Ac-RVRHA-{keto‑C(:O)NH-isopropyl}
IC50 (µM), measured in vitro as described (Ticha et al., 2017) [1]: 12.4 µM

B11: Compound 13 (peptide)
peptide: Ac-Arg-His-Ala
modifications: not fully specified (C-terminus)
IC50 (µM), measured in vitro as described (Ticha et al., 2017) [1]: 9.05 µM

B12: Compound 3 (peptide)
peptide: Ac-RVRHA
modifications: not fully specified (C-terminus)
IC50 (µM), measured in vitro as described (Ticha et al., 2017) [1]: 5.01 µM

B13: Compound 10 (peptide)
peptide: Ac-RVRHA
modifications: also: C-terminal Ala as alpha-ketoamide, -CO-CO-NH-CH2-(2,5-dimethylphenyl)
notes: Structure is printed only as a drawing; Tail inferred from C38H60N14O7, MW 824.99; also called Cpd No. 10
Ki [2]: 10 to 100 nM
IC50 (µM), measured in vitro as described (Ticha et al., 2017) [1]: 0.18 µM

B14: Compound 14 (peptide)
peptide: Ac-His-Ala
modifications: not fully specified (C-terminus)
IC50 (µM), measured in vitro as described (Ticha et al., 2017) [1]: 48 µM
